# Test results published in paper PMC10344970.
# How the values were obtained:
# Experiment in all cases: purified protein
# [1] = test system: CC(C)=CCC/C(C)=C/COP(=O)(O)OP(=O)(O)O; conditions: co-substrate 1-hydroxynaphthalene (1), 50 mM Tris-HCl, 10 mM CaCl2, 5% DMSO, 37 °C, 15 min, substrate inhibition at 1.0 mM or higher
# Oc1ccc2c(O)cccc2c1 = conditions: co-substrate 1 mM DMAPP, 50 mM Tris-HCl, 10 mM CaCl2, 5% DMSO, 37 °C, 15 min
# Oc1ccc2cccc(O)c2c1 = conditions: co-substrate 1 mM DMAPP, 50 mM Tris-HCl, 10 mM CaCl2, 5% DMSO, 37 °C, 15 min
substance,measurement,setting,value
ShPT (Stereum hirsutum FP-91666 SS1),Km,[1],1010 ± 50 µM
same,kcat,[1],0.36 ± 0.01 s⁻¹
same,kcat/Km,[1],357 M⁻¹ s⁻¹
same,Km,Oc1ccc2c(O)cccc2c1,660 ± 100 µM
same,kcat,Oc1ccc2c(O)cccc2c1,0.13 ± 0.01 s⁻¹
same,kcat/Km,Oc1ccc2c(O)cccc2c1,197 M⁻¹ s⁻¹
same,Km,Oc1ccc2cccc(O)c2c1,920 ± 10 µM
same,kcat,Oc1ccc2cccc(O)c2c1,0.46 ± 0.04 s⁻¹
same,kcat/Km,Oc1ccc2cccc(O)c2c1,511 M⁻¹ s⁻¹
